Reference: PMC5028032, “Linkage between Fitness of Yeast Cells and Adenylate Kinase Catalysis” (PLoS ONE, 2016)

system: Nc1ncnc2c1ncn2[C@@H]1O[C@H](COP(=O)(O)OP(=O)(O)OP(=O)(O)O)[C@@H](O)[C@H]1O; assay: purified protein; settings: 300 μM AMP constant, 2 mM MgCl2, 80 mM KCl, 100 mM Tris pH 7.5, 20°C

Row | Substance | Km [µM] | kcat [s⁻¹] | kcat/Km [M⁻¹ s⁻¹]
1 | Adkeco (Escherichia coli K-12) | 72 ± 8 | 305 | 4.26e+06
2 | Adkeco (Escherichia coli K-12; G10V) | 411 ± 61 | 60 | 140000
3 | Adkeco (Escherichia coli K-12; T163C) | 37 ± 2 | 143 | 3.9e+06
